US20030199671A1 (published 2003)
Positions of bridges follow the written chain, without caps; N, C: chain ends.

What was measured:
[1] = target: T1, Human IgG Fc fragment isolated from plasma (human); test: fluorescence anisotropy; pH 8.0, 0.05 M Tris-HCl, 0.2 M NaCl
T1 construct: domain: Fc fragment; also called human Fc; Fc protein
Description: (§1) All measurements were performed in 384 well microplates with 20 nM fluorescein-labeled peptide and various concentrations of the IgG isoform in a volume of between 10 and 20 μl using a Tecan Polarion fluorescence polarization plate reader. All binding buffers included 0.01% (v/v) Tween 20 to prevent peptide adsorption to the microplate. The binding mixture was equilibrated for 10 minutes in the microplate at 30° C. prior to performing the measurement.

human IgG1 [2] = target: T2, human IgG1 (human, UniProt P01857-1 1-330 = IgG part); test: fluorescence anisotropy; pH 5.7, 0.1 M NaCl
T2 construct: Calbiochem; human plasma IgG1 in anisotropy studies, myeloma-derived (cat. 400120) in batch/column studies; also called hIgG1
Description: as §1

human IgG2 [3] = target: T3, human IgG2 (human, UniProt P01859-1 1-326 = IgG part); test: fluorescence anisotropy; pH 7.4 PBS
T3 construct: Calbiochem; plasma IgG2 in anisotropy studies, myeloma-derived (cat. 400122) in batch/column studies; also called hIgG2
Description: as §1

human IgG1 [4] = target: T2, human IgG1; test: fluorescence anisotropy; pH 7.4 PBS
Description: as §1

human IgG4 [5] = target: T4, human IgG4 (human, UniProt P01861-1 1-327 = IgG part); test: fluorescence anisotropy; pH 7.4 PBS
T4 construct: Calbiochem; plasma IgG4 in anisotropy studies, myeloma-derived (cat. 400126) in batch/column studies; also called hIgG4
Description: as §1

human IgG1 [6] = target: T2, human IgG1; test: fluorescence anisotropy; pH 5.7, 0.15 M NaCl
Description: as §1

human IgG2 [7] = target: T3, human IgG2; test: fluorescence anisotropy; pH 7.4, 0.01 M Tris-HCl
Description: as §1

human IgG1 [8] = target: T2, human IgG1; test: fluorescence anisotropy; pH 7.4, 0.01 M Tris-HCl
Description: as §1

human IgG4 [9] = target: T4, human IgG4; test: fluorescence anisotropy; pH 7.4, 0.01 M Tris-HCl
Description: as §1

human IgG1 [10] = target: T2, human IgG1; test: fluorescence anisotropy; pH 7.4 PBS, 15% ethylene glycol
Description: as §1

human IgG1 [11] = target: T2, human IgG1; test: fluorescence anisotropy; pH 5.7, 0.15 M NaCl; remark: listed apart in the source
Description: as §1

human IgG1 [12] = target: T2, human IgG1; test: fluorescence anisotropy; pH 5.7, 15% ethylene glycol
Description: as §1

human IgG2 [13] = target: T3, human IgG2; test: batch binding, immobilised ligand
Description: (§2) IgG targets were diluted into 10 mM phosphate buffer containing 150 mM NaCl and 0.01% Tween 20, pH 7.2 (PBST) or 50 mM Tris buffer containing, 150 mM NaCl and 0.01% Tween-20, pH 7.5 (TBST). Batch (static) binding and elution studies were conducted in a 96-well assay filterplate (Millipore MultiScreen-HV, with 0.45 μm Durapore membrane, product no. MAHVN4510). The target was allowed to incubate with the resin for 1-1.5 hours with shaking at room temperature. Unbound target was collected by centrifugation of samples from the assay plate directly into a low-UV absorbing 96-well collection plate (Costar, product no. 3635 or Greiner, product no. 655801). The unbound target was then quantitated by reading the absorbance at 280 nm (normalized to 1 cm pathlength, 1.4 mg/ml A280 extinction coefficient) of the collection plate on a microplate spectrophotometer (Molecular Devices Corp., SPECTRAmax PLUS) against a buffer blank.
(§3) The percentage bound target was determined by subtracting the mass determined as unbound from the corresponding condition's control values (control non-filtered added directly to the collection plate and/or the negative control). The assay plate was washed (3×) with 200 μl of binding buffer by vacuum filtration followed by addition of 100 μl of various elution conditions (e.g.: 0.1 M sodium bicarbonate buffer, pH 8.5 and/or 0.1 M sodium citrate buffer, pH 4.0). After a 30-60 minute incubation with shaking at room temperature, the eluted target was collected by centrifugation of the assay plate into another collection plate and quantitated in a similar manner. Percent elution of total load was then determined to characterize elution recovery efficiency under various conditions.

human IgG3 = target: T5, human IgG3 (human, UniProt P01860-1 1-377); test: batch binding, immobilised ligand
T5 construct: Calbiochem; plasma IgG3 in anisotropy studies, myeloma-derived (cat. 400124) in batch/column studies; also called hIgG3
Description: as §2, §3

human IgG1 [14] = target: T2, human IgG1; test: batch binding, immobilised ligand
Description: as §2, §3

human IgG4 [15] = target: T4, human IgG4; test: batch binding, immobilised ligand
Description: as §2, §3

human IgG1 [16] = target: T2, human IgG1; test: fluorescence anisotropy; pH 7.4 PBS (second value, unlabelled row)
Description: as §1

human IgG2 [17] = target: T3, human IgG2; test: mini-column chromatography, immobilised ligand
Description: (§4) Thus, 250 μg of target (hIgG1, hIgG2, hIgG3, hIgG4, goat IgG and bovine IgG) at 0.250 mg/ml in PBST, pH 7.2 or TBST, pH 7.3 was loaded onto a 350 μl column (3×50 mm) run at 0.200 ml/min. flowrate (170 cm/hr). Flowthrough, elution and cleaning fractions were collected and assayed for total protein recovery by size-exclusion HPLC.

human IgG1 [18] = target: T2, human IgG1; test: mini-column chromatography, immobilised ligand
Description: as §4

human IgG4 [19] = target: T4, human IgG4; test: mini-column chromatography, immobilised ligand
Description: as §4

T4 sequence (P01861 other isoform, or with tags, fused parts or gaps): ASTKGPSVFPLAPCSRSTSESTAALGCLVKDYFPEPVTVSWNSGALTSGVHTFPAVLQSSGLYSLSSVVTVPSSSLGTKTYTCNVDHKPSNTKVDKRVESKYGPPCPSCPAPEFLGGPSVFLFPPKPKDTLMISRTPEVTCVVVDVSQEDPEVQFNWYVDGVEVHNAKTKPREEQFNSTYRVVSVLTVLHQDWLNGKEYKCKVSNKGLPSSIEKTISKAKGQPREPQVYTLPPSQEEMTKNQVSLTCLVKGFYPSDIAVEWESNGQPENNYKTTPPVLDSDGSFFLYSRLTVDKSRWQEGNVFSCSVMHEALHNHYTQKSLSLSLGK
T2 sequence (P01857 other isoform, or with tags, fused parts or gaps): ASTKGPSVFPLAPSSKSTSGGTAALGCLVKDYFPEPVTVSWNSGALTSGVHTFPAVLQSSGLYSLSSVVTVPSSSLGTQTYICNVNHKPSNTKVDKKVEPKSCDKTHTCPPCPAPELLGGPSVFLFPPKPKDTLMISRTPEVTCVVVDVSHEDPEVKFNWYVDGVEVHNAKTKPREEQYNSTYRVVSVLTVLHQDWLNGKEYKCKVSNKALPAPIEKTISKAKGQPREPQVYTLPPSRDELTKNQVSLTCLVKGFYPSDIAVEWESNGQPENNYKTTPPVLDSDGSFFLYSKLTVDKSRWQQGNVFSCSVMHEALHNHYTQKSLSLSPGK
T3 sequence (P01859 other isoform, or with tags, fused parts or gaps): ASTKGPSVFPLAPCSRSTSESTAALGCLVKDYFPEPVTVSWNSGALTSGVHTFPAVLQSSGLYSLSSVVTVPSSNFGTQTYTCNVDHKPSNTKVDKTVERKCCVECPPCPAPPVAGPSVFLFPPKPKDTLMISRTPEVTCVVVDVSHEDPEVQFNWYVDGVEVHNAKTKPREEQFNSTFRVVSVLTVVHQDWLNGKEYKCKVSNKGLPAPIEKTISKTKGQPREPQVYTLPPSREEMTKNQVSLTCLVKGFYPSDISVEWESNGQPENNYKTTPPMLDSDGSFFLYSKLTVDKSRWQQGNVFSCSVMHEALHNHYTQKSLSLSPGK
T5 sequence (P01860 other isoform, or with tags, fused parts or gaps): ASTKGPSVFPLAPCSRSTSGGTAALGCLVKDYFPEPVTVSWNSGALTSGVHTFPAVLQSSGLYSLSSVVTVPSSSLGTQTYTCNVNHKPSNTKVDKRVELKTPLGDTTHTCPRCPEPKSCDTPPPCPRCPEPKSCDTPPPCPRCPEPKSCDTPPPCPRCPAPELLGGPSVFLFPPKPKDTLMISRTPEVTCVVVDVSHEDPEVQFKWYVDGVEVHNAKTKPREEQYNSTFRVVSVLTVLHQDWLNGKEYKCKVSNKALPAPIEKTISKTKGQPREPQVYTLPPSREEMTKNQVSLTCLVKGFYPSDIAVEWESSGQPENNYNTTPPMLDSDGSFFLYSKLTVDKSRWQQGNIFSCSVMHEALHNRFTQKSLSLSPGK

Kd [1]: 2500 nM
Kd (human IgG1 [2]): 970 nM
Kd (human IgG2 [3]): 1100 nM
Kd (human IgG1 [4]): 1400 nM
Kd (human IgG4 [5]): 1900 nM
Kd (human IgG1 [6]): 840 nM
Kd (human IgG2 [7]): 1800 nM
Kd (human IgG1 [8]): 400 nM
Kd (human IgG4 [9]): 1900 nM
Kd (human IgG1 [10]): 3600 nM
Kd (human IgG1 [11]): 840 nM
Kd (human IgG1 [12]): 80 nM
Bound (% of Total Load) (human IgG2 [13]): 78%
bdg % (of Total Load) (human IgG2 [13]): 92%
Bound (% of Total Load) (human IgG3): 0%
bdg % (of Total Load) (human IgG3): 3%
Bound (% of Total Load) (human IgG1 [14]): 88%
bdg % (of Total Load) (human IgG1 [14]): 91%
Bound (% of Total Load) (human IgG4 [15]): 61%
bdg % (of Total Load) (human IgG4 [15]): 82%
Kd (human IgG1 [16]): 2900 nM
binding efficiency (human IgG2 [17]): > 90%
binding efficiency (human IgG1 [18]): > 90%
binding efficiency (human IgG4 [19]): > 90%
Binder: Ac-GDDHMCVYTTWGELIWCDNHEPGPEGGGK-NH2 (disulfide 6-17 (inferred), Synthetic disulfide-cyclised peptide) [DX249]
